Data: US20030233681, “ICE1, a regulator of cold induced transcriptome and freezing tolerance in plants” (Arizona Bd of Regents/Behalf of Univ. of Arizona, published 2003)
Residue numbers refer to the chain shown, from its start.

Key:
ICE1 [1] = biological target: T1, ICE1 (Arabidopsis thaliana, UniProt Q9LSE2 SEQ:1-494); test: competition; unlabeled competitor with putative MYB site does not compete; 50-250 fold excess; settings: tags: His tag N-terminal (pET14b, E. coli BL21 DE3)
T1 sequence: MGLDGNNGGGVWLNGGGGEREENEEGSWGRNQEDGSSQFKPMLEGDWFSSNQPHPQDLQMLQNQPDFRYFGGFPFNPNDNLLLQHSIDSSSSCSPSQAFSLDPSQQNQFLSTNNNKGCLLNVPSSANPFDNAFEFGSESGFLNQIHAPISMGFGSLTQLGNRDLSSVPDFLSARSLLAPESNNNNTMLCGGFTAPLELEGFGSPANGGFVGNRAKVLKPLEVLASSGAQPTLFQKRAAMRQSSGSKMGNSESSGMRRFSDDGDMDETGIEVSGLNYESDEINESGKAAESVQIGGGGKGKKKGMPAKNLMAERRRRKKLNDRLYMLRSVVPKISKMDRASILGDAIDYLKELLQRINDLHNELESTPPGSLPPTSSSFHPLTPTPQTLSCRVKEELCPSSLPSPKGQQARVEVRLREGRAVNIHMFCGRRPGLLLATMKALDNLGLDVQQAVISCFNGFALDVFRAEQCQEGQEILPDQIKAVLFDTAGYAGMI
Description: (§1) The wild type and mutant ICE1 cDNAs were amplified by RT-PCR and inserted into NdeI and BamHI sites in the expression vector pET14b (Novagen). Wild-type and mutant His-ICE1 fusion proteins were prepared from E. coli cells (BL21 DE3) according to the instruction manual of His-Bind Buffer Kit (Novagen). The electrophoresis mobility shift assay (EMSA) was carried out as described (Hao et al. 1998). The following double-stranded oligonucleotides listed in FIG. 6A (MYC-1, MYC-2, MYC-3, MYC-4 and MYC-5) were used as probes and competitors in EMSAs. Nucleotide sequences P1 (−949 to −930) and P2 (−909 to −890) were also used as competitors. P1 contains a putative MYB-recognition site. […] DNA probes were end-labeled with [γ-³²P]dCTP using the Klenow fragment and purified through a Sephadex G-50 column. The labeled probes (ca 0.02 pmol) were incubated for 20 min at room temperature with 2.3 μg of purified His-ICE1 fusion protein in 1×binding buffer (Hao et a.1998) supplemented with 20 pmol poly(dI-dC). The resulting DNA-protein complexes were resolved by electrophoresis on a 6% polyacrylamide gel in 0.5×TBE buffer and visualized by autoradiography. For competition experiments, unlabeled competitors were incubated with the His-ICE1 fusion protein on ice for 30 min prior to the addition of labeled probes. […]

ICE1 [2] = biological target: T1, ICE1; test: EMSA; several complexes; weaker competitor than MYC-2; settings: tags: His tag N-terminal (pET14b, E. coli BL21 DE3); label: 32P
Description: (§2) For competition experiments, unlabeled competitors were incubated with the His-ICE1 fusion protein on ice for 30 min prior to the addition of labeled probes.
(§3) ICE1 has a basic helix-loop-helix (bHLH) domain and its amino acid sequence in the basic region is highly conserved with other bHLH proteins (FIG. 4B), and therefore may recognize promoter elements similar to the DNA-binding sites for known bHLH proteins. These proteins recognize DNA with the consensus sequence CANNTG (Meshi and Iwabuchi 1995). In the promoter region of CBF3, there are five potential MYC-recognition elements within a 1 kb region upstream of the transcription initiation site (Shinwari et al. 1998). These possible MYC-recognition sites, designated MYC-1 through MYC-5, fall into four groups because MYC-3 and MYC-5 share the same consensus sequence, CATTTG (FIG. 6A). Thus, MYC-3 was used to represent both MYC-3 and MYC-5. To determine whether ICE1 binds to these MYC-recognition sites in the CBF3 promoter, we expressed and purified His-ICE1 fusion protein from E. coli. Four DNA fragments encompassing each possible MYC-recognition site were used for interaction with His-ICE1 in an electrophoresis mobility shift assay (EMSA).
(§4) The MYC-2 fragment formed one major complex with ICE1, while the other DNA fragments formed several complexes with ICE1. […]

ICE1 [3] = biological target: T1, ICE1; test: competition; unlabeled non-related competitor does not compete; 50-250 fold excess; settings: tags: His tag N-terminal (pET14b, E. coli BL21 DE3)
Description: as §1

ICE1 [4] = biological target: T1, ICE1; test: EMSA; several complexes; weaker competitor than MYC-2; also represents MYC-5; settings: tags: His tag N-terminal (pET14b, E. coli BL21 DE3); label: 32P
Description: as §2, §3, §4

ICE1 [5] = biological target: T1, ICE1; test: EMSA; one major complex; strongest of the sites by competition; poly(dI-dC), room temperature 20 min; settings: tags: His tag N-terminal (pET14b, E. coli BL21 DE3); label: 32P
Description: as §1

ice1 (R236H) = biological target: T2, ice1 (R236H) (Arabidopsis thaliana, UniProt Q9LSE2 SEQ:1-494, R236H); test: EMSA; R236H mutant still binds; settings: tags: His tag N-terminal (pET14b, E. coli BL21 DE3); label: 32P
T2 sequence: T1 sequence with R236H
Description: as §1

B1: P1 (-949 to -930) (dsDNA)
DNA 1: ATATAATTAACTACTTTTAT
DNA 2: ATAAAAGTAGTTAATTATAT
B1: no binding (ICE1 [1]).

B2: MYC-4 (dsDNA)
DNA 1: ACAATTACAACTGCATGCTT
DNA 2: AAGCATGCAGTTGTAATTGT
B2: binds (ICE1 [2]).

B3: P2 (-909 to -890) (dsDNA)
DNA 1: GACTCGTTTCGCGATCCGAT
DNA 2: ATCGGATCGCGAAACGAGTC
B3: no binding (ICE1 [3]).

B4: MYC-1 (dsDNA)
DNA 1: CATTTTACAATTGCTTCGCT
DNA 2: AGCGAAGCAATTGTAAAATG
B4: binds (ICE1 [2]).

B5: MYC-3 (dsDNA)
DNA 1: AATGTTACATTTGATCATTC
DNA 2: GAATGATCAAATGTAACATT
B5: binds (ICE1 [4]).

B6: MYC-2 (dsDNA)
DNA 1: CTCTGGACACATGGCAGATC
DNA 2: GATCTGCCATGTGTCCAGAG
B6: binds (ICE1 [5]); binds (ice1 (R236H)).
